Results: publication PMC5270629 (Thrombosis research, 2015)

Biological target: T1, human fibrinogen (human, UniProt P02671-2 20-644; P02675 31-491; P02679-2 27-437)
T1 sequence (looked up) 1: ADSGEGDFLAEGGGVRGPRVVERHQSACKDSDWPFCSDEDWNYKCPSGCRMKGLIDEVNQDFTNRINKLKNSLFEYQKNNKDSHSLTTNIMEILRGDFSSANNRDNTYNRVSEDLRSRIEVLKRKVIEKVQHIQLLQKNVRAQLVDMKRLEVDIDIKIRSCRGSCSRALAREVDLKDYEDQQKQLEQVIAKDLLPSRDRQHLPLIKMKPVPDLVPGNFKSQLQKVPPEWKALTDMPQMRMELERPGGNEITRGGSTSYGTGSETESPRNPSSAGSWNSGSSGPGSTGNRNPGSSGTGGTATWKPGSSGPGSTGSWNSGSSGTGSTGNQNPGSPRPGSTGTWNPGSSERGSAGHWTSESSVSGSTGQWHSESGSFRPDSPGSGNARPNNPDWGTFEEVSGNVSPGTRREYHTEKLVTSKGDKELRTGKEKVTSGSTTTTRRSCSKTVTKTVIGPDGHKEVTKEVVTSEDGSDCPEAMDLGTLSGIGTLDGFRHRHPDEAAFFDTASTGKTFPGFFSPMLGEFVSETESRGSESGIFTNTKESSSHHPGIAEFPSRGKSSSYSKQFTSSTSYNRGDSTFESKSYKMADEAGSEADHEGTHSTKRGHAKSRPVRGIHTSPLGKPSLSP
T1 sequence (looked up) 2: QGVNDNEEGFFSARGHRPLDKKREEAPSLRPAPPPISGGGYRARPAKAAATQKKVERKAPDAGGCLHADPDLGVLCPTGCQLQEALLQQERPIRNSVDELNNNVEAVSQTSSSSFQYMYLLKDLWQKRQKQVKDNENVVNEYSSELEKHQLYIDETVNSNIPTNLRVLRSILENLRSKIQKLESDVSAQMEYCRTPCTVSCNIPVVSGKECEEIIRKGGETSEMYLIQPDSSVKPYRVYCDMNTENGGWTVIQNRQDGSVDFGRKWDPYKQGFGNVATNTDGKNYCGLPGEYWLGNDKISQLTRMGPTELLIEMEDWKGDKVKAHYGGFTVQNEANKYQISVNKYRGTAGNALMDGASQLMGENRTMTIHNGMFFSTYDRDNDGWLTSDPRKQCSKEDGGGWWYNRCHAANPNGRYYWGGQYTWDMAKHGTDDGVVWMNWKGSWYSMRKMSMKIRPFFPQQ
T1 sequence (looked up) 3: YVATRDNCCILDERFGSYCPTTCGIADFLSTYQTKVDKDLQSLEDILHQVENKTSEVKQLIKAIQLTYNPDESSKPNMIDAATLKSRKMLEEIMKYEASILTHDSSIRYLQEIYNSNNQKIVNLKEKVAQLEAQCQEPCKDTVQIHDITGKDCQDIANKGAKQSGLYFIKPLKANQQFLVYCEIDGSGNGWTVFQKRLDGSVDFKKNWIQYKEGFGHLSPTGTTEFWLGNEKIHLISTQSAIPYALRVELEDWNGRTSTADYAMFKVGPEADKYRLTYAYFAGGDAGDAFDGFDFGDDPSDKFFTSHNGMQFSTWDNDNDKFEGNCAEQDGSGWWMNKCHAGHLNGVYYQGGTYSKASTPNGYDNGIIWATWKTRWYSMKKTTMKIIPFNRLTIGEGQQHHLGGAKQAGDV
Experiment: SPR

B1: recombinant von Willebrand factor (VWF) A2 domain polypeptide, A2_(1481-1668) (domain or fragment)
chain: GLLGVSTLGPKRNSMVLDVAFVLEGSDKIGEADFNRSKEFMEEVIQRMDVGQDSIHVTVLQYSYMVTVEYPFSEAQSKGDILQRVREIRYQGGNRTNTGLALRYLSDHSFLVSQGDREQAPNLVYMVTGNPASDEIKRLPGDIQVVPIGVGPNANVQELERIGWPNAPILIQDFETLPREAPDLVLQR
Question: For B1, which Kd is on record?
Answer: The Kd was 125 ± 30 nM.
